Among the data in patent publication US20250218531A1 (ABSCI, published 2025) are Kd, koff and kon values, retold here.

Like-named read-outs stand apart in the source and are kept apart here.

The target in test [1] is T1, human epidermal growth factor receptor 2 (HER2) extracellular domain (human, UniProt P04626 23-629). Kind of test: SPR, table row 25.
The target in test [2] is T1, human epidermal growth factor receptor …. In words: SPR, table row 39.
Test [3] shares this target. In words: SPR, table row 38.
For test [4] the target is unchanged. In words: SPR, table row 42.
For test [5] the target is unchanged.
For test [6] the target is unchanged. Kind of test: SPR, table row 26.
For test [7] the target is unchanged. Kind of test: SPR, table row 32.
The target is the same in test [8]. Kind of test: SPR, table row 35.
The target is the same in test [9]. In words: SPR, table row 29.
Test [10] shares this target. Kind of test: SPR, table row 7.
For test [11] the target is unchanged. In words: SPR, table row 33.
Test [12] has the same target. In words: SPR, table row 30.
Test [13] shares this target. In words: SPR, table row 34.
For test [14] the target is unchanged. In words: SPR, table row 9.
Test [15] has the same target. Kind of test: SPR, table row 21.
The target is the same in test [16]. Kind of test: SPR, table row 27.
In test [17] the target is T2, human vascular endothelial growth factor A (VEGF-A) (human, UniProt P15692 220-313).
T2 sequence: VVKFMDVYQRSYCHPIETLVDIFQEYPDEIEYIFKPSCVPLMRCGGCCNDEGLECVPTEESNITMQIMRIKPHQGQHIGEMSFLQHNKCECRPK
Kind of test: SPR, Fab format.

Test [18] deals with T1, human epidermal growth factor receptor …. Kind of test: SPR, table row 4.
The target is the same in test [19]. Kind of test: SPR, table row 18.
Test [20] has the same target. Kind of test: SPR, table row 28.
Test [21] shares this target. In words: SPR, table row 40.
Test [22] shares this target. Kind of test: SPR, table row 5.
Test [23] shares this target. In words: SPR, table row 10.
Test [24] shares this target. In words: SPR, table row 8.

B1: Trast_Her2_229 (Fab, V domains shown)
VH: EVQLVESGGGLVQPGGSLRLSCAASGFNIKDTYIHWVRQAPGKGLEWVARIYPTNGYTRYADSVKGRFTISADTSKNTAYLQMNSLRAEDTAVYYCARFDRYGYYLGTWGQGTLVTVSS
VL: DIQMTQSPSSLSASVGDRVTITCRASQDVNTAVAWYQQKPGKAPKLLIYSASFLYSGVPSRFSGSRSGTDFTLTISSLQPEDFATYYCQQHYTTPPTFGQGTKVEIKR
notes: also called HCDR3 ARFDRYGYYLGT
As for B1, in [1], the affinity, expressed as Kd, was 30.4 nM; the koff is 0.000635 s⁻¹; the on-rate constant (kon) is 20900 M⁻¹ s⁻¹. In [2], binding was characterised by a dissociation constant (Kd) of 114 nM, the off-rate constant (koff) came out at 0.00201 s⁻¹ and the association rate constant (kon) came to 17700 M⁻¹ s⁻¹.

B2: Trast_Her2_230 (Fab, V domains shown)
VH: EVQLVESGGGLVQPGGSLRLSCAASGFNIKDTYIHWVRQAPGKGLEWVARIYPTNGYTRYADSVKGRFTISADTSKNTAYLQMNSLRAEDTAVYYCARFDRYGYYLGTWGQGTLVTVSS
VL: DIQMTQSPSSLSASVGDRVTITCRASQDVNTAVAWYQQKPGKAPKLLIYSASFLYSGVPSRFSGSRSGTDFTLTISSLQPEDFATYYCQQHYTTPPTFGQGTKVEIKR
notes: as for B1
Regarding B2, in test [3], binding was put at a Kd of 104 nM, the koff is 0.0023 s⁻¹ and the kon was found to be 22100 M⁻¹ s⁻¹. Also, in [4], the dissociation constant (Kd) was 198 nM, the koff came out at 0.0046 s⁻¹ and the kon was 23300 M⁻¹ s⁻¹.

B3: Trast_Her2_70 (Fab, V domains shown)
VH: EVQLVESGGGLVQPGGSLRLSCAASGFNIKDTYIHWVRQAPGKGLEWVARIYPTNGYTRYADSVKGRFTISADTSKNTAYLQMNSLRAEDTAVYYCAKYDYYIYDFDIWGQGTLVTVSS
VL: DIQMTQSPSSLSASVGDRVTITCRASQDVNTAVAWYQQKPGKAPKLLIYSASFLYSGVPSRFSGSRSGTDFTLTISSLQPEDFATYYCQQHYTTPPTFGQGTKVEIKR
notes: also called HCDR3 AKYDYYIYDFDI
In test [5], B3 gave a dissociation constant (Kd) of 19.4 nM, a koff of 0.000369 s⁻¹ and a kon of 19000 M⁻¹ s⁻¹. In [6], this molecule gave a Kd of 30.5 nM, a koff of 0.000284 s⁻¹ and a kon of 9320 M⁻¹ s⁻¹.

B4: Trast_Her2_59 (Fab, V domains shown)
VH: EVQLVESGGGLVQPGGSLRLSCAASGFNIKDTYIHWVRQAPGKGLEWVARIYPTNGYTRYADSVKGRFTISADTSKNTAYLQMNSLRAEDTAVYYCAKRNAYRGSLDYWGQGTLVTVSS
VL: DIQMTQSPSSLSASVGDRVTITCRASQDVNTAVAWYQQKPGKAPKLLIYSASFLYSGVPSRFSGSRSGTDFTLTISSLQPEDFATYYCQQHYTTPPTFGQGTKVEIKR
notes: also called HCDR3 AKRNAYRGSLDY
Turning to B4, in test [7], the affinity, expressed as Kd, was 51.1 nM; the koff was determined as 0.000717 s⁻¹; the association rate constant (kon) came to 14000 M⁻¹ s⁻¹. In [8], this molecule returned a dissociation constant Kd of 64.9 nM, a koff of 0.00077 s⁻¹ and a kon of 11900 M⁻¹ s⁻¹.

B5: Trast_Her2_58 (Fab, V domains shown)
VH: EVQLVESGGGLVQPGGSLRLSCAASGFNIKDTYIHWVRQAPGKGLEWVARIYPTNGYTRYADSVKGRFTISADTSKNTAYLQMNSLRAEDTAVYYCAKRDFGRDWFAYWGQGTLVTVSS
VL: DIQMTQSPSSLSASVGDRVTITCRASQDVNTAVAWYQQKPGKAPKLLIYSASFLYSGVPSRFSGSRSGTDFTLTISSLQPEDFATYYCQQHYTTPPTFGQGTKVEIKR
notes: also called HCDR3 AKRDFGRDWFAY
As to B5, in test [9], the dissociation constant Kd worked out at 38.8 nM, the koff came to 0.000582 s⁻¹ and the association rate constant (kon) stood at 15000 M⁻¹ s⁻¹.

B6: Trast_Her2_56 (Fab, V domains shown)
VH: EVQLVESGGGLVQPGGSLRLSCAASGFNIKDTYIHWVRQAPGKGLEWVARIYPTNGYTRYADSVKGRFTISADTSKNTAYLQMNSLRAEDTAVYYCAKPYYFNYDLGVWGQGTLVTVSS
VL: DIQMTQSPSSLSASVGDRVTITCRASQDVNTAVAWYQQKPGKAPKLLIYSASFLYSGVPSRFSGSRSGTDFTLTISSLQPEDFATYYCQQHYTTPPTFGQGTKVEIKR
notes: also called HCDR3 AKPYYFNYDLGV
As to B6, in [10], binding was characterised by a dissociation constant (Kd) of 2.44 nM, the off-rate constant (koff) stood at 2.42e-05 s⁻¹ and the on-rate constant (kon) came to 9940 M⁻¹ s⁻¹. In addition, in test [11], binding was put at a Kd of 56.8 nM, the off-rate (koff) was 0.000933 s⁻¹ and the kon was 16400 M⁻¹ s⁻¹.

B7: Trast_Her2_231 (Fab, V domains shown)
VH: EVQLVESGGGLVQPGGSLRLSCAASGFNIKDTYIHWVRQAPGKGLEWVARIYPTNGYTRYADSVKGRFTISADTSKNTAYLQMNSLRAEDTAVYYCARFGISGYYWDVWGQGTLVTVSS
VL: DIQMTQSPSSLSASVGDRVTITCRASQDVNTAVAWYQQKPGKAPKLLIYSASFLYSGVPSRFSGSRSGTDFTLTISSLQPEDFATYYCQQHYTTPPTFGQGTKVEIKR
notes: also called HCDR3 ARFGISGYYWDV
Turning to B7, in test [12], the Kd was 43.3 nM, the off-rate constant (koff) was 0.00106 s⁻¹ and the on-rate constant (kon) was 24500 M⁻¹ s⁻¹. Also, in [13], the Kd stood at 64.4 nM, the off-rate (koff) was found to be 0.0014 s⁻¹ and the on-rate (kon) was found to be 21800 M⁻¹ s⁻¹.

B8: Trast_Her2_50 (Fab, V domains shown)
VH: EVQLVESGGGLVQPGGSLRLSCAASGFNIKDTYIHWVRQAPGKGLEWVARIYPTNGYTRYADSVKGRFTISADTSKNTAYLQMNSLRAEDTAVYYCAKGWGVEPREFAYWGQGTLVTVSS
VL: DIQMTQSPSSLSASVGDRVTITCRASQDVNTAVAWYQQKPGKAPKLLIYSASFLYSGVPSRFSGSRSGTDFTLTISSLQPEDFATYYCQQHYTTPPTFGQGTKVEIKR
notes: also called HCDR3 AKGWGVEPREFAY
On to B8, for which, in test [14], the Kd turned out to be 2.71 nM, the koff is 4.19e-05 s⁻¹ and the kon came to 15500 M⁻¹ s⁻¹.

B9: Trast_Her2_57 (Fab, V domains shown)
VH: EVQLVESGGGLVQPGGSLRLSCAASGFNIKDTYIHWVRQAPGKGLEWVARIYPTNGYTRYADSVKGRFTISADTSKNTAYLQMNSLRAEDTAVYYCAKPYYYFSDGLEYWGQGTLVTVSS
VL: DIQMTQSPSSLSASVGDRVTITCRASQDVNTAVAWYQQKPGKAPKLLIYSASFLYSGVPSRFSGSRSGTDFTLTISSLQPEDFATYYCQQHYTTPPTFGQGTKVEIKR
notes: also called HCDR3 AKPYYYFSDGLEY
As for B9, in test [15], the Kd turned out to be 15.6 nM, the koff amounted to 0.000321 s⁻¹ and the kon came out at 20600 M⁻¹ s⁻¹. In test [16], this molecule came in with a Kd of 34.8 nM, a dissociation rate constant (koff) of 0.000581 s⁻¹ and an on-rate constant (kon) of 16700 M⁻¹ s⁻¹.

B10: De novo ranibizumab HCDR3 variant ASGNFSYPDDYGMDW (SEQ ID NO: 50) (Fab, V domains shown)
VH: EVQLVESGGGLVQPGGSLRLSCAASGYDFTHYGMNWVRQAPGKGLEWVGWINTYTGEPTYAADFKRRFTFSLDTSKSTAYLQMNSLRAEDTAVYYCASGNFSYPDDYGMDWWGQGTLVTVSS
VL: DIQLTQSPSSLSASVGDRVTITCSASQDISNYLNWYQQKPGKAPKVLIYFTSSLHSGVPSRFSGSGSGTDFTLTISSLQPEDFATYYCQQYSTVPWTFGQGTKVEIKR
In [17], B10 gave a Kd of 48.2 nM. That is a double-digit nanomolar value.

B11: Trast_Her2_131 (Fab, V domains shown)
VH: EVQLVESGGGLVQPGGSLRLSCAASGFNIKDTYIHWVRQAPGKGLEWVARIYPTNGYTRYADSVKGRFTISADTSKNTAYLQMNSLRAEDTAVYYCARDGRYGYQDYWGQGTLVTVSS
VL: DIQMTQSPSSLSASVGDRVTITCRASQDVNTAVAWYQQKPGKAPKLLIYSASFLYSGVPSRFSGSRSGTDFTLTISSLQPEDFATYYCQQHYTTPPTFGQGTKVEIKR
notes: also called HCDR3 ARDGRYGYQDY
In test [18], B11 came in with a Kd of 1 nM, a dissociation rate constant (koff) of 1e-05 s⁻¹ and a kon of 9990 M⁻¹ s⁻¹. In test [19], this molecule yielded a Kd of 8.06 nM, a koff of 0.000202 s⁻¹ and a kon of 25000 M⁻¹ s⁻¹.

B12: Trast_Her2_76 (Fab, V domains shown)
VH: EVQLVESGGGLVQPGGSLRLSCAASGFNIKDTYIHWVRQAPGKGLEWVARIYPTNGYTRYADSVKGRFTISADTSKNTAYLQMNSLRAEDTAVYYCAMDFKFTRLDLWGQGTLVTVSS
VL: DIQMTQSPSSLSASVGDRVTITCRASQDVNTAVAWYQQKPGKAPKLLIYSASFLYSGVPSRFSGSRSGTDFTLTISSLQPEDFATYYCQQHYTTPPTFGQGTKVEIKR
notes: also called HCDR3 AMDFKFTRLDL
Regarding B12, in test [20], the equilibrium dissociation constant (Kd) stood at 36.4 nM, the koff was determined as 0.00127 s⁻¹ and the association rate constant (kon) was determined as 35000 M⁻¹ s⁻¹. Further, in test [21], binding was put at a Kd of 159 nM, the koff stood at 0.00525 s⁻¹ and the association rate constant (kon) came out at 33100 M⁻¹ s⁻¹.

B13: Trast_Her2_51 (Fab, V domains shown)
VH: EVQLVESGGGLVQPGGSLRLSCAASGFNIKDTYIHWVRQAPGKGLEWVARIYPTNGYTRYADSVKGRFTISADTSKNTAYLQMNSLRAEDTAVYYCAKHYDGWILAYWGQGTLVTVSS
VL: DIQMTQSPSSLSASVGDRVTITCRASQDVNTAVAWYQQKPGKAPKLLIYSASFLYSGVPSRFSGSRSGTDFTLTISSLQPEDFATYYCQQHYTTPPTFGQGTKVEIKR
notes: also called HCDR3 AKHYDGWILAY
For B13, in test [22], the Kd was determined as 1.03 nM, the koff stood at 1e-05 s⁻¹ and the association rate constant (kon) amounted to 9680 M⁻¹ s⁻¹. In [23], this molecule returned an equilibrium dissociation constant (Kd) of 2.89 nM, a koff of 4.35e-05 s⁻¹ and a kon of 15100 M⁻¹ s⁻¹.

B14: Trast_Her2_54 (Fab, V domains shown)
VH: EVQLVESGGGLVQPGGSLRLSCAASGFNIKDTYIHWVRQAPGKGLEWVARIYPTNGYTRYADSVKGRFTISADTSKNTAYLQMNSLRAEDTAVYYCAKNFLIGTRYWWGQGTLVTVSS
VL: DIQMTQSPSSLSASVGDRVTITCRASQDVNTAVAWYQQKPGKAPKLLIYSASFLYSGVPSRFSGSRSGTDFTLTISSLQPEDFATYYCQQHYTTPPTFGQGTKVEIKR
notes: also called HCDR3 AKNFLIGTRYW
B14: in test [24], the dissociation constant Kd was determined as 2.68 nM, the off-rate constant (koff) was found to be 4.11e-05 s⁻¹ and the kon is 15400 M⁻¹ s⁻¹.
